Results: patent publication US20180155451A1 (published 2018)

T1: FcγRIIb (human, UniProt P31994 43-217)
T1 construct: extracellular domain; also called FcgRIIb; 2b; not shown: His tag at the C terminus
T1 sequence (looked up): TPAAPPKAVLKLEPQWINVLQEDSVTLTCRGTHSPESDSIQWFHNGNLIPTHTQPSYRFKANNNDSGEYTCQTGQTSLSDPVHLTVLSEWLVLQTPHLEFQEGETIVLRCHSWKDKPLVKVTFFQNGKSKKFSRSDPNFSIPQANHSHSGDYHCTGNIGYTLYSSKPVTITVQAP

T2: FcγRIIb extracellular domain with C-terminal His tag (human, UniProt P31994 43-217)
T2 construct: extracellular domain; also called 2b; FcgRIIb; not shown: His tag at the C terminus
T2 sequence (looked up): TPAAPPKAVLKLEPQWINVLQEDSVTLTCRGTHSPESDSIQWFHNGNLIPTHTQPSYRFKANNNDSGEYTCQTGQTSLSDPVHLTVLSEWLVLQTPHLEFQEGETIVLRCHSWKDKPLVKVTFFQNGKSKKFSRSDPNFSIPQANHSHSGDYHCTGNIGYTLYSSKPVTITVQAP

B1: GpH7-A5/GpH7-B3 variant Q295_09D/GpL16-k0 (antibody, human IgG1, kappa)
heavy 1: not shown
heavy 2: not shown
light: DIVMTQSPLSLPVTPGEPASISCQASESLVHSNRNTYLHWYLQKPGQSPQLLIYKVSNRFSGVPDRFSGSGSGTDFTLKISRVEAEDVGVYYCSQNTHVPPTFGQGTKVEIERTVAAPSVFIFPPSDEQLKSGTASVVCLLNNFYPREAKVQWKVDNALQSGNSQESVTEQDSKDSTYSLSSTLTLSKADYEKHKVYACEVTHQGLSSPVTKSFNRGEC
notes: He Ab: mutation only in the GpH7-B3 H chain; EU numbering; also called He Ab
B2: GpH7-A5/GpH7-B3 variant T335_18N/GpL16-k0 (antibody, human IgG1, kappa)
heavy 1: not shown
heavy 2: not shown
light: DIVMTQSPLSLPVTPGEPASISCQASESLVHSNRNTYLHWYLQKPGQSPQLLIYKVSNRFSGVPDRFSGSGSGTDFTLKISRVEAEDVGVYYCSQNTHVPPTFGQGTKVEIERTVAAPSVFIFPPSDEQLKSGTASVVCLLNNFYPREAKVQWKVDNALQSGNSQESVTEQDSKDSTYSLSSTLTLSKADYEKHKVYACEVTHQGLSSPVTKSFNRGEC
notes: He Ab: mutation in the GpH7-B3 H chain only; also called He Ab
B3: GpH7-A5/GpH7-B3 variant V266_18N/GpL16-k0 (antibody, human IgG1, kappa)
heavy 1: not shown
heavy 2: not shown
light: DIVMTQSPLSLPVTPGEPASISCQASESLVHSNRNTYLHWYLQKPGQSPQLLIYKVSNRFSGVPDRFSGSGSGTDFTLKISRVEAEDVGVYYCSQNTHVPPTFGQGTKVEIERTVAAPSVFIFPPSDEQLKSGTASVVCLLNNFYPREAKVQWKVDNALQSGNSQESVTEQDSKDSTYSLSSTLTLSKADYEKHKVYACEVTHQGLSSPVTKSFNRGEC
notes: as for B2
B4: GpH7-A5/GpH7-B3 variant V266_05P/GpL16-k0 (antibody, human IgG1, kappa)
heavy 1: not shown
heavy 2: not shown
light: DIVMTQSPLSLPVTPGEPASISCQASESLVHSNRNTYLHWYLQKPGQSPQLLIYKVSNRFSGVPDRFSGSGSGTDFTLKISRVEAEDVGVYYCSQNTHVPPTFGQGTKVEIERTVAAPSVFIFPPSDEQLKSGTASVVCLLNNFYPREAKVQWKVDNALQSGNSQESVTEQDSKDSTYSLSSTLTLSKADYEKHKVYACEVTHQGLSSPVTKSFNRGEC
notes: as for B2
B5: GpH7-A5/GpH7-B3 variant V266_04F/GpL16-k0 (antibody, human IgG1, kappa)
heavy 1: not shown
heavy 2: not shown
light: DIVMTQSPLSLPVTPGEPASISCQASESLVHSNRNTYLHWYLQKPGQSPQLLIYKVSNRFSGVPDRFSGSGSGTDFTLKISRVEAEDVGVYYCSQNTHVPPTFGQGTKVEIERTVAAPSVFIFPPSDEQLKSGTASVVCLLNNFYPREAKVQWKVDNALQSGNSQESVTEQDSKDSTYSLSSTLTLSKADYEKHKVYACEVTHQGLSSPVTKSFNRGEC
notes: as for B2
B6: GpH7-A5/GpH7-B3 variant V266_09D/GpL16-k0 (antibody, human IgG1, kappa)
heavy 1: not shown
heavy 2: not shown
light: DIVMTQSPLSLPVTPGEPASISCQASESLVHSNRNTYLHWYLQKPGQSPQLLIYKVSNRFSGVPDRFSGSGSGTDFTLKISRVEAEDVGVYYCSQNTHVPPTFGQGTKVEIERTVAAPSVFIFPPSDEQLKSGTASVVCLLNNFYPREAKVQWKVDNALQSGNSQESVTEQDSKDSTYSLSSTLTLSKADYEKHKVYACEVTHQGLSSPVTKSFNRGEC
notes: as for B2
B7: GpH7-A5/GpH7-B3 variant V266_14T/GpL16-k0 (antibody, human IgG1, kappa)
heavy 1: not shown
heavy 2: not shown
light: DIVMTQSPLSLPVTPGEPASISCQASESLVHSNRNTYLHWYLQKPGQSPQLLIYKVSNRFSGVPDRFSGSGSGTDFTLKISRVEAEDVGVYYCSQNTHVPPTFGQGTKVEIERTVAAPSVFIFPPSDEQLKSGTASVVCLLNNFYPREAKVQWKVDNALQSGNSQESVTEQDSKDSTYSLSSTLTLSKADYEKHKVYACEVTHQGLSSPVTKSFNRGEC
notes: as for B2
B8: GpH7-A5/GpH7-B3 variant Q295_10E/GpL16-k0 (antibody, human IgG1, kappa)
heavy 1: not shown
heavy 2: not shown
light: DIVMTQSPLSLPVTPGEPASISCQASESLVHSNRNTYLHWYLQKPGQSPQLLIYKVSNRFSGVPDRFSGSGSGTDFTLKISRVEAEDVGVYYCSQNTHVPPTFGQGTKVEIERTVAAPSVFIFPPSDEQLKSGTASVVCLLNNFYPREAKVQWKVDNALQSGNSQESVTEQDSKDSTYSLSSTLTLSKADYEKHKVYACEVTHQGLSSPVTKSFNRGEC
notes: as for B1
B9: GpH7-A5/GpH7-B3 variant V266_13S/GpL16-k0 (antibody, human IgG1, kappa)
heavy 1: not shown
heavy 2: not shown
light: DIVMTQSPLSLPVTPGEPASISCQASESLVHSNRNTYLHWYLQKPGQSPQLLIYKVSNRFSGVPDRFSGSGSGTDFTLKISRVEAEDVGVYYCSQNTHVPPTFGQGTKVEIERTVAAPSVFIFPPSDEQLKSGTASVVCLLNNFYPREAKVQWKVDNALQSGNSQESVTEQDSKDSTYSLSSTLTLSKADYEKHKVYACEVTHQGLSSPVTKSFNRGEC
notes: as for B2
B10: GpH7-A5/GpH7-B3 variant V266_07I/GpL16-k0 (antibody, human IgG1, kappa)
heavy 1: not shown
heavy 2: not shown
light: DIVMTQSPLSLPVTPGEPASISCQASESLVHSNRNTYLHWYLQKPGQSPQLLIYKVSNRFSGVPDRFSGSGSGTDFTLKISRVEAEDVGVYYCSQNTHVPPTFGQGTKVEIERTVAAPSVFIFPPSDEQLKSGTASVVCLLNNFYPREAKVQWKVDNALQSGNSQESVTEQDSKDSTYSLSSTLTLSKADYEKHKVYACEVTHQGLSSPVTKSFNRGEC
notes: as for B2
B11: GpH7-A5/GpH7-B3 variant V266_08L/GpL16-k0 (antibody, human IgG1, kappa)
heavy 1: not shown
heavy 2: not shown
light: DIVMTQSPLSLPVTPGEPASISCQASESLVHSNRNTYLHWYLQKPGQSPQLLIYKVSNRFSGVPDRFSGSGSGTDFTLKISRVEAEDVGVYYCSQNTHVPPTFGQGTKVEIERTVAAPSVFIFPPSDEQLKSGTASVVCLLNNFYPREAKVQWKVDNALQSGNSQESVTEQDSKDSTYSLSSTLTLSKADYEKHKVYACEVTHQGLSSPVTKSFNRGEC
notes: as for B2
B12: GpH7-A5/GpH7-B3 variant V266_10E/GpL16-k0 (antibody, human IgG1, kappa)
heavy 1: not shown
heavy 2: not shown
light: DIVMTQSPLSLPVTPGEPASISCQASESLVHSNRNTYLHWYLQKPGQSPQLLIYKVSNRFSGVPDRFSGSGSGTDFTLKISRVEAEDVGVYYCSQNTHVPPTFGQGTKVEIERTVAAPSVFIFPPSDEQLKSGTASVVCLLNNFYPREAKVQWKVDNALQSGNSQESVTEQDSKDSTYSLSSTLTLSKADYEKHKVYACEVTHQGLSSPVTKSFNRGEC
notes: as for B2
B13: GpH7-A5/GpH7-B3 variant V266_06M/GpL16-k0 (antibody, human IgG1, kappa)
heavy 1: not shown
heavy 2: not shown
light: DIVMTQSPLSLPVTPGEPASISCQASESLVHSNRNTYLHWYLQKPGQSPQLLIYKVSNRFSGVPDRFSGSGSGTDFTLKISRVEAEDVGVYYCSQNTHVPPTFGQGTKVEIERTVAAPSVFIFPPSDEQLKSGTASVVCLLNNFYPREAKVQWKVDNALQSGNSQESVTEQDSKDSTYSLSSTLTLSKADYEKHKVYACEVTHQGLSSPVTKSFNRGEC
notes: as for B2
B14: GpH7-A5/GpH7-B3 variant V266_15Y/GpL16-k0 (antibody, human IgG1, kappa)
heavy 1: not shown
heavy 2: not shown
light: DIVMTQSPLSLPVTPGEPASISCQASESLVHSNRNTYLHWYLQKPGQSPQLLIYKVSNRFSGVPDRFSGSGSGTDFTLKISRVEAEDVGVYYCSQNTHVPPTFGQGTKVEIERTVAAPSVFIFPPSDEQLKSGTASVVCLLNNFYPREAKVQWKVDNALQSGNSQESVTEQDSKDSTYSLSSTLTLSKADYEKHKVYACEVTHQGLSSPVTKSFNRGEC
notes: as for B2
B15: GpH7-A5/GpH7-B3 variant V266_02A/GpL16-k0 (antibody, human IgG1, kappa)
heavy 1: not shown
heavy 2: not shown
light: DIVMTQSPLSLPVTPGEPASISCQASESLVHSNRNTYLHWYLQKPGQSPQLLIYKVSNRFSGVPDRFSGSGSGTDFTLKISRVEAEDVGVYYCSQNTHVPPTFGQGTKVEIERTVAAPSVFIFPPSDEQLKSGTASVVCLLNNFYPREAKVQWKVDNALQSGNSQESVTEQDSKDSTYSLSSTLTLSKADYEKHKVYACEVTHQGLSSPVTKSFNRGEC
notes: as for B2
B16: GpH7-A5/GpH7-B3 variant V266_11K/GpL16-k0 (antibody, human IgG1, kappa)
heavy 1: not shown
heavy 2: not shown
light: DIVMTQSPLSLPVTPGEPASISCQASESLVHSNRNTYLHWYLQKPGQSPQLLIYKVSNRFSGVPDRFSGSGSGTDFTLKISRVEAEDVGVYYCSQNTHVPPTFGQGTKVEIERTVAAPSVFIFPPSDEQLKSGTASVVCLLNNFYPREAKVQWKVDNALQSGNSQESVTEQDSKDSTYSLSSTLTLSKADYEKHKVYACEVTHQGLSSPVTKSFNRGEC
notes: as for B2
B17: GpH7-A5/GpH7-B3 variant V266_19Q/GpL16-k0 (antibody, human IgG1, kappa)
heavy 1: not shown
heavy 2: not shown
light: DIVMTQSPLSLPVTPGEPASISCQASESLVHSNRNTYLHWYLQKPGQSPQLLIYKVSNRFSGVPDRFSGSGSGTDFTLKISRVEAEDVGVYYCSQNTHVPPTFGQGTKVEIERTVAAPSVFIFPPSDEQLKSGTASVVCLLNNFYPREAKVQWKVDNALQSGNSQESVTEQDSKDSTYSLSSTLTLSKADYEKHKVYACEVTHQGLSSPVTKSFNRGEC
notes: as for B2
B18: GpH7-A5/GpH7-B3 variant V266_16H/GpL16-k0 (antibody, human IgG1, kappa)
heavy 1: not shown
heavy 2: not shown
light: DIVMTQSPLSLPVTPGEPASISCQASESLVHSNRNTYLHWYLQKPGQSPQLLIYKVSNRFSGVPDRFSGSGSGTDFTLKISRVEAEDVGVYYCSQNTHVPPTFGQGTKVEIERTVAAPSVFIFPPSDEQLKSGTASVVCLLNNFYPREAKVQWKVDNALQSGNSQESVTEQDSKDSTYSLSSTLTLSKADYEKHKVYACEVTHQGLSSPVTKSFNRGEC
notes: as for B2

Tests used:
FcγRIIb = target: T1, FcγRIIb; assay: SPR (Biacore), captured antibody, soluble FcγR; relative to GpH7-A5/GpH7-B3/GpL16-k0
FcγRIa = target: T3, FcγRIa (human, UniProt P12314 16-292); assay: as above
T3 construct: extracellular domain; also called FcgRI; 1a; not shown: His tag at the C terminus

[1] = target: T4, FcγRIIIa extracellular domain with C-terminal His tag (human, UniProt P08637 17-208); assay: SPR (Biacore), relative binding, GpH7-A5/GpH7-B3/GpL16-k0 = 100
T4 construct: extracellular domain; also called 3a; FcgRIIIa; not shown: His tag at the C terminus

[2] = target: T2, FcγRIIb extracellular domain with …; assay: as above

T4 sequence (P08637 17-208): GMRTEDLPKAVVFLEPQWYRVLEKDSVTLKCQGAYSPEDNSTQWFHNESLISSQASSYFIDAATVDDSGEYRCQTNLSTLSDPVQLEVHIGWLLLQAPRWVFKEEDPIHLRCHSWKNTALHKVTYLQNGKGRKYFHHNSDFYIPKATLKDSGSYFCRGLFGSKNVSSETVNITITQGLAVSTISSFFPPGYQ
T3 sequence (P12314 16-292): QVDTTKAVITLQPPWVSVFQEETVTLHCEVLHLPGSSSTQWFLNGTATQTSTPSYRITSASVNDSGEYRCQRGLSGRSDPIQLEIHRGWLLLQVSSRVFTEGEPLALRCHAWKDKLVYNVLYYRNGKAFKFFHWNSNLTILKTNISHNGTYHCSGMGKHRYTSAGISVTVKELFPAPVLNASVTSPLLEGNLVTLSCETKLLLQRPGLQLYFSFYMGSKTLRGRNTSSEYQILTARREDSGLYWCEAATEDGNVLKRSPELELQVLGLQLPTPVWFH

Binder | He/Con_2b (FcγRIIb) | He/Con_1a (FcγRIa) | He/Con_3a [1] | He/Con_2b [2]
B1 | 60.8 relative, HeCon Ab = 100 | 100 relative, HeCon Ab = 100 | – | –
B2 | – | – | 98.8 % of control | 102 % of control
B3 | – | – | 30.4 % of control | 69.7 % of control
B4 | – | – | -0.7 % of control | 0.4 % of control
B5 | – | – | 34.7 % of control | 57.6 % of control
B6 | – | – | 2.7 % of control | 10.1 % of control
B7 | – | – | 39.4 % of control | 82.3 % of control
B8 | 94.8 relative, HeCon Ab = 100 | 103 relative, HeCon Ab = 100 | – | –
B9 | – | – | 28.1 % of control | 54.4 % of control
B10 | – | – | 114 % of control | 152 % of control
B11 | – | – | 118 % of control | 236 % of control
B12 | – | – | 4.1 % of control | 15.2 % of control
B13 | – | – | 85.8 % of control | 251 % of control
B14 | – | – | 14.5 % of control | 49.4 % of control
B15 | – | – | 57.4 % of control | 81 % of control
B16 | – | – | -0.7 % of control | 1 % of control
B17 | – | – | 34.7 % of control | 89.2 % of control
B18 | – | – | 21.3 % of control | 57.2 % of control
